{"source": "paper PMC12342048", "about": "“Cleavage of Cartilage Oligomeric Matrix Protein (COMP) by ADAMTS4 generates a neoepitope associated with osteoarthritis and other forms of degenerative joint disease” (Matrix biology : journal of the International Society for …, 2024)", "proteins": {"B1": {"name": "Drosophila melanogaster S2-expressed human COMP (Cartilage Oligomeric Matrix Protein) (natural protein)", "chain": "not shown", "modifications": "N-linked glycans (shown by PNGase F)", "notes": "Cartilage Oligomeric Matrix Protein, human; the Drosophila BiP secretion signal is fused to Gly22 of COMP and cleaved off before secretion to give a native N terminus; numbers count on NP_000086.2 (precursor); on non-reducing SDS-PAGE a mixture of monomers to pentamers was seen; also called iCOMP; thrombospondin 5; source: Drosophila melanogaster Schneider 2 (S2) cells, purified from conditioned …"}, "B2": {"name": "fully cleaved N-terminal domain (NTD) of COMP ending at the QQS77 neoepitope (domain or fragment, human, UniProt P49747-1 21-77, looked up)", "chain": "QGQSPLGSDLGPQMLRELQETNAALQDVRELLRQQVREITFLKNTVMECDACGMQQS", "notes": "Cartilage Oligomeric Matrix Protein, human, N-terminal product of the cleavage at the S77-V78 bond; numbers count on NP_000086.2 (precursor); Made by proteolysis of m2; also called fully cleaved NTD pentamer; N-terminal cleavage fragment; source: hCOMP (520 nM, purified from Freestyle 293-F medium) digested with purified ADAMTS4 (12 nM), 2 h, 37 °C"}}, "key": {"[1]": {"target": "the molecule itself", "assay": "non-reducing SDS-PAGE; purified COMP, 4 μg/lane, 4–12 % SDS-PAGE under non-reducing conditions, Coomassie Brilliant Blue staining; under reducing conditions (5 % β-mercaptoethanol) a monomer band at ~100 kDa"}, "[2]": {"target": "the molecule itself", "assay": "non-reducing SDS-PAGE with immunoblot; hCOMP (520 nM) incubated with ADAMTS4 WT (12 nM) for 2 h at 37 °C in TNC-B; non-reducing SDS-PAGE, immunoblot with anti-QQS77 neoepitope antibody"}}}
{"protein": "B1", "values": [{"measurement": "binding result", "setting": "[1]", "value": "binds"}]}
{"protein": "B2", "values": [{"measurement": "stoichiometry N", "setting": "[2]", "value": 5}]}
